In PMC4299599, “Quantification of cytosolic interactions identifies Ede1 oligomers as key organizers of endocytosis” (Molecular Systems Biology, 2014):
Blank lines part the entries; values can stand above or below the binder they belong to.

How the values were obtained:
Details in all cases: partners not purified
Ste11-3mCherry = target: T1, Ste11-3mCherry (S. cerevisiae, UniProt P23561 1-717); assay: fluorescence cross-correlation spectroscopy (FCCS); living yeast cells, observation volume in the cytoplasm; one protein tagged with (3)myeGFP/eGFP and the other with 3mCherry in the same strain; apparent (effective) KD; interactions up to ~1 μM detectable
T1 construct: Ste11, S. cerevisiae; negative control of FCCS; source: S. cerevisiae strain Don1-eGFP, Ste11-3mCherry, in living cells
T1 sequence (looked up): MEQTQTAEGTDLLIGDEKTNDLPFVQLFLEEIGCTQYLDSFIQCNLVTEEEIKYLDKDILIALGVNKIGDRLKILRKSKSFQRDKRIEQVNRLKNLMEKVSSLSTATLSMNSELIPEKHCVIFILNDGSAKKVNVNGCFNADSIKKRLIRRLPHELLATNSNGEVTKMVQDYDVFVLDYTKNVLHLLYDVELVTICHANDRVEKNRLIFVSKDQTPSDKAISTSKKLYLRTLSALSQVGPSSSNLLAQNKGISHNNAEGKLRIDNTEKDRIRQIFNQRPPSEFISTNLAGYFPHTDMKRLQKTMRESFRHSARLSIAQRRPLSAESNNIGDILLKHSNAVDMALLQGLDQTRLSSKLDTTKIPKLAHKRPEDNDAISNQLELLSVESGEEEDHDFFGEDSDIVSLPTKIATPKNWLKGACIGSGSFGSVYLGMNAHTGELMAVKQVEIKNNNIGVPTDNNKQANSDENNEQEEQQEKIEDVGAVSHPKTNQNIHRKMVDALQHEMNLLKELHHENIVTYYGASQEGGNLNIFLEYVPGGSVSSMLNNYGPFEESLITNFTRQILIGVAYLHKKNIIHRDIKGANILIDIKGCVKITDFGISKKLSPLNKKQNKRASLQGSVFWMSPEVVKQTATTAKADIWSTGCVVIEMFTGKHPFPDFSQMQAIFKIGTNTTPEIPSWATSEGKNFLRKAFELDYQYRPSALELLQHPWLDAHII

Bbc1 = target: T2, Bbc1 (S. cerevisiae, UniProt P47068 1-1157); assay: fluorescence cross-correlation spectroscopy (FCCS); in the cytoplasm of living yeast cells; first-named protein green (3myeGFP or 1myeGFP; eGFP for Don1), second red (3mCherry); self-interaction in diploid strains with one allele of each colour; apparent or effective KD (Kdeff) from single-cell measurements; only Kdeff values < 1000 nM are shown; values for self-interactions are upper limits
T2 construct: Bbc1, S. cerevisiae; also called Bbc1-3myeGFP; Bbc1-3mCherry; source: chromosomally tagged at the endogenous locus, in the cytoplasm of living S. cerevisiae cells
T2 sequence (looked up): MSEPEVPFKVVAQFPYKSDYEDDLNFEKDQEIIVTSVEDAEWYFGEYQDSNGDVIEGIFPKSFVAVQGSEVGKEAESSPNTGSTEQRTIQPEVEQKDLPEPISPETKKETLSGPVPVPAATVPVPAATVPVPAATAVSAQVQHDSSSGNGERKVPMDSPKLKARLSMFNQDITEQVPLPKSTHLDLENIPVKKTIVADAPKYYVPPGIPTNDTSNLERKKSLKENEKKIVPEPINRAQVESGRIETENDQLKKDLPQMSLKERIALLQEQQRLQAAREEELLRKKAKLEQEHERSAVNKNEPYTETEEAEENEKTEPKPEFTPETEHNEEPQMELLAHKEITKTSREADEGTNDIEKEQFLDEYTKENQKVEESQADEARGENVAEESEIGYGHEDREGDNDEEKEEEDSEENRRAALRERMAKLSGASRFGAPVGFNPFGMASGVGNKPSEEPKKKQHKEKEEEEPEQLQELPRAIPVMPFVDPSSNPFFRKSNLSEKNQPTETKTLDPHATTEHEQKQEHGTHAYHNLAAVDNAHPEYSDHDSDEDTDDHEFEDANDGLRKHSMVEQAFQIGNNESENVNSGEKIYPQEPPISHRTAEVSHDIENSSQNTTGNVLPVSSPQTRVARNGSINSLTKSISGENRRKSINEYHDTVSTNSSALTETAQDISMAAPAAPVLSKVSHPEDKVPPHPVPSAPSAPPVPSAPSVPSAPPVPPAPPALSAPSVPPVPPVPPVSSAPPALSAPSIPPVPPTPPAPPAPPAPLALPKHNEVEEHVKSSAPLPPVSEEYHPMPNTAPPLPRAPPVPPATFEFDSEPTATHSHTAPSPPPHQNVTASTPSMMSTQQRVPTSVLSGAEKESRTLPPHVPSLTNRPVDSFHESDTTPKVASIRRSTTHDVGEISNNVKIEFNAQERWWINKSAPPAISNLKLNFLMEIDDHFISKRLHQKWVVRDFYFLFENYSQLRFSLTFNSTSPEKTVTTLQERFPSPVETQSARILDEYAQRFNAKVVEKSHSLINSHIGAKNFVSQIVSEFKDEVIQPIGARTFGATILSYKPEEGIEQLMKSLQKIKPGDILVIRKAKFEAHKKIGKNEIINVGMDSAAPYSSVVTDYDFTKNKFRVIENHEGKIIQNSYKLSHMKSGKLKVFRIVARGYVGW

Sla1 = target: T3, Sla1 (S. cerevisiae, UniProt P32790 1-1244); assay: as above
T3 construct: Sla1, S. cerevisiae; also called Sla1-3myeGFP; Sla1-3mCherry; source: chromosomally tagged at the endogenous locus, in the cytoplasm of living S. cerevisiae cells
T3 sequence (looked up): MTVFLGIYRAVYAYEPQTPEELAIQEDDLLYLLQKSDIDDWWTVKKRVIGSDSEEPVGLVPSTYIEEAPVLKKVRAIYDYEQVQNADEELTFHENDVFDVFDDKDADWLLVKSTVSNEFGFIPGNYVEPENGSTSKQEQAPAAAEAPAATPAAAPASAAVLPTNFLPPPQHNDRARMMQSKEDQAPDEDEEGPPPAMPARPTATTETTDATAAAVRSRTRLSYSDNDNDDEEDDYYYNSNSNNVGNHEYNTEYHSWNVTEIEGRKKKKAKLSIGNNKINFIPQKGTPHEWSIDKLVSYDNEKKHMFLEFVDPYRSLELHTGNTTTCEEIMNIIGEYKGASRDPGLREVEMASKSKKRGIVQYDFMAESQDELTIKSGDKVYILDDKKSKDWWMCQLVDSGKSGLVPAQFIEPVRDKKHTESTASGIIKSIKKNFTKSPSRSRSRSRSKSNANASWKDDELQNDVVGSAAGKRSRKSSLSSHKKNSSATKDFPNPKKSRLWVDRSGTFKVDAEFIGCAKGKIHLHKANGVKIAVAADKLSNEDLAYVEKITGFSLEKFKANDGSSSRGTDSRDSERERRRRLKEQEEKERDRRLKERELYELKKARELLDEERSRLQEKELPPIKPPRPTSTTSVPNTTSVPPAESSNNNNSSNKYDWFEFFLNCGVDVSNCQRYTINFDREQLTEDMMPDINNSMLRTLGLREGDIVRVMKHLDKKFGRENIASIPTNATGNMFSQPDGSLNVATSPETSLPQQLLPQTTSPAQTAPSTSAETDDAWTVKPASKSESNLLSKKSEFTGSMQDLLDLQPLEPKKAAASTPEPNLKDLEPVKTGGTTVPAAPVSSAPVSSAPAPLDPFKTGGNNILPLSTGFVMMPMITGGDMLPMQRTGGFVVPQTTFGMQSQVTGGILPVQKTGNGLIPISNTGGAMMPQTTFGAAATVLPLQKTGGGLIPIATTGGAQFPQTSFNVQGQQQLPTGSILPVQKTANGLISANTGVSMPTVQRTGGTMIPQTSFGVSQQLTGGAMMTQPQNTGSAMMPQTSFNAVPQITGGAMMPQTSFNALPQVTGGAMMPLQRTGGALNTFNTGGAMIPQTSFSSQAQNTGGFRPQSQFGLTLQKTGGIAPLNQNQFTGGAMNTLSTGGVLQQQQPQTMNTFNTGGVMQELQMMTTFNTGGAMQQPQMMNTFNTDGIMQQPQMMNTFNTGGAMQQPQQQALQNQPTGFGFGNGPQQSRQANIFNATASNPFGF

Rvs167 = target: T4, Rvs167 (S. cerevisiae, UniProt P39743 1-482); assay: as above
T4 construct: Rvs167, amphiphysin-like protein, S. cerevisiae; also called Rvs167-1myeGFP; source: chromosomally tagged at the endogenous locus, in the cytoplasm of living S. cerevisiae cells; not shown: 1myeGFP, C-terminal, kept
T4 sequence (P39743 whole entry): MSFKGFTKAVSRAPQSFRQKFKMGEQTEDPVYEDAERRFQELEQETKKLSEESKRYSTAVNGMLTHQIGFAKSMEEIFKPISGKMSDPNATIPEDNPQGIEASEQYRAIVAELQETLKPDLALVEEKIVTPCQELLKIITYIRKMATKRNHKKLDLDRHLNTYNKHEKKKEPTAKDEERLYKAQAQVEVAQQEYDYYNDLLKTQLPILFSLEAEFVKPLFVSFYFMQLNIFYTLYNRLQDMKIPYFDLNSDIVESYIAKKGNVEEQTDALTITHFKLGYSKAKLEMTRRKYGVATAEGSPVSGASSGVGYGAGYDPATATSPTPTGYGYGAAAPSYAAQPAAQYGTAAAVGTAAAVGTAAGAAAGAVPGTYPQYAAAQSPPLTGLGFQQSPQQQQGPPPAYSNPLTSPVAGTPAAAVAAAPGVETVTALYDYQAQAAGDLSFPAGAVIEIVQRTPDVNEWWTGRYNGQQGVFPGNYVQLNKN

Kd (Ste11-3mCherry): > 1000 nM
B1: Don1-eGFP (natural protein, S. cerevisiae, UniProt Q05610 1-365, looked up)
chain: MGKKNRKGKENNAAKTSFLKVENIKNTNSGLELPSQDYTNVEEKESSPKTDFPLITKEHVNTKTDSNILDYPTIGDLVSSVEKLCVLKELKIAFPEVDDTLIKAILIASQGVLEPAFNSLLYYSSPEENTDFALPMKPISVEDYSKINVSEILQREIFDDIEDEFSGQGINGSMVISKIESELSSLAEHIGNISTPGSNREVAESTRNVAVAEGHNTILSNEDSILKGKEKGKEEEKEKGEEKGVNSLKGAAVKVVAKSLKNNRIPVTVKRNEPSNNLFDVLNCDESEEEEEQDVETNTSNQERKNQGGNTEVPEAQRDSADRLPAKDDGGYKSAFGTDSCGLFAADAKDEKKQVHPSRQELSFT
notes: Don1, S. cerevisiae; negative control of FCCS; source: S. cerevisiae strain Don1-eGFP, Ste11-3mCherry, in living cells

Kd (Bbc1): 994 nM
Kd (Sla1): 976 nM
B2: Bzz1 (natural protein, S. cerevisiae, UniProt P38822 1-633, looked up)
chain: MSADLSIGNEIKDSFKETHKWVQNNLKWLKDIEQFYRERAKLEKDYSERLSRLSAEYFNKKSSTSVPISVGDTPTTTPGSIEAAGVVAWNEILSQTDMISKDHDQLSTDFENHVANQLSGLFTKLDMTLSKINGFNNDMVNKKDNIYHELEKAKKDYDEACSTMEMARNRYTKASNDRNKKKLDEKEMEMNKCKNEYLIKINQANRTKDKYYFQDVPEVLDLLQDVNEAKTLFLNDLWLKAASVENDLGANVSKRLQAANSVVKQNKPSLNTAIFIKHNLKNWKEPQDFVYKPSPVWHDDEKFAVPSSLEVEDLRIKLAKAENDYNSLQDKTQNELSKLSTLNKIKHEMKTNEDNINATKFYDTLKEYLNVVSPFTSHETLKLQAEVQIESIQNNVPEEYDLSTDNIDLSKTKKKSGIFSKFKHNILNVDSKPSSGGSTGNGNGGPLHITSLFNTSRRTRLGSAPNNAGEDSDNNSIRTTSTNNTKKTTQNSSDDGKNKVLYAYVQKDDDEITITPGDKISLVARDTGSGWTKINNDTTGETGLVPTTYIRISSAATVKANDRGPAPEVPPPRRSTLPVRTMEAIYAYEAQGDDEISIDPGDIITVIRGDDGSGWTYGECDGLKGLFPTSYCK
notes: Bzz1, S. cerevisiae; also called Bzz1-3myeGFP; Bzz1-3mCherry; source: chromosomally tagged at the endogenous locus, in the cytoplasm of living S. cerevisiae cells

Kd (Rvs167): 6 nM
B3: Rvs161 (natural protein, S. cerevisiae, UniProt P25343 1-265, looked up)
chain: MSWEGFKKAINRAGHSVIIKNVDKTIDKEYDMEERRYKVLQRAGEALQKEAKGFLDSLRAVTASQTTIAEVISNLYDDSKYVAGGGYNVGNYYLQCVQDFDSETVKQLDGPLRETVLDPITKFSTYFKEIEEAIKKRDHKKQDFDAAKAKVRRLVDKPAKDASKLPRAEKELSLAKDIFENLNNQLKTELPQLVSLRVPYFDPSFEALIKIQLRFCTDGYTRLAQIQQYLDQQSRDDYANGLLDTKIEELLGQMTSLDICALGIK
notes: Rvs161, amphiphysin-like protein, S. cerevisiae; also called Rvs161-1myeGFP; Rvs161-3mCherry; source: chromosomally tagged at the endogenous locus, in the cytoplasm of living S. cerevisiae cells
